Data taken from US20230248855A1 (ACTINIUM PHARMACEUTICALS, published 2023).

Biological target: T1, human recombinant HER3 (human, UniProt P21860 20-643)
T1 construct: Plate-coated recombinant protein in the ELISA
Experiment: ELISA, plate coated with human recombinant HER3, anti-human IgG F(ab')2-HRP detection
Experimental: A secondary antibody (Goat Anti-human IgG F(ab′)20-HRP) was added and incubated for 30 min on ice followed by color development using […] for 10 min.

T1 sequence (P21860 20-643 limits assumed): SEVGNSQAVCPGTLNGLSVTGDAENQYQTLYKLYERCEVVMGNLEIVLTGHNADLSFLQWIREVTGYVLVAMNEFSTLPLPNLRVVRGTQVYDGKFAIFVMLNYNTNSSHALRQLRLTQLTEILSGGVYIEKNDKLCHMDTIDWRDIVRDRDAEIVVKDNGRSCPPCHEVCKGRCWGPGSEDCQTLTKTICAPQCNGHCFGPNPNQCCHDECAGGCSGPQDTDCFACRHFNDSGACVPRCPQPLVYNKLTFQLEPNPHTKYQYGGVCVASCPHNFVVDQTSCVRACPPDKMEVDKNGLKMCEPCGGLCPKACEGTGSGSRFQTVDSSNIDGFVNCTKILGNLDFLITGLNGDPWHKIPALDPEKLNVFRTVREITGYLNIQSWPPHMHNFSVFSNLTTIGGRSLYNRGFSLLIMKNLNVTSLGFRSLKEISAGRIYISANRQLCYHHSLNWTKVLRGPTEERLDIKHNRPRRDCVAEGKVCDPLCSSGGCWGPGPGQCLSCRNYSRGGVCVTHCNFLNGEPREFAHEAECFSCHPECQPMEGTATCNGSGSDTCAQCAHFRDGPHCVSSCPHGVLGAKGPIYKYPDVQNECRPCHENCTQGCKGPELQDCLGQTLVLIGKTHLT

EC50 [ng/mL] | Binder
1.7 | 225Ac-HER3-ARC (Ac225 labeled DOTA-conjugated anti-HER3 monoclonal antibody) (antibody, human IgG1, kappa, V domains shown, DOTA chelator conjugated using p-SCN-Bn-DOTA and chelating Actinium-225; sites and chain not stated) VH: QVQLVESGGGLVKPGGSLRLSCAASGFTFSDYAMSWIRQAPGKGLEWVSTISDGGTYTYYPDSVKGRFTISRDNAKNSLYLQMNSLRAEDTAVYYCAREWGDYDGFDYWGQGTLVTVSS VL: DIQMTQSPSSLSASVGDRVTITCRASQEISGYLSWYQQKPGKAPKRLIYAASTLDSGVPSRFSGSGSGTEFTLTISSLQPEDFATYYCLQYDSYPYTFGQGTKLEIKR
2.2 | anti-HER3 IgG monoclonal antibody consisting of heavy chain SEQ ID NO:77 and light chain SEQ ID NO:78 (unmodified) (antibody, V domains shown, IgG, detected with an anti-human IgG secondary antibody; also called unmodified anti-HER3 antibody; unmodified anti-HER3 mAb) VH: QVQLVESGGGLVKPGGSLRLSCAASGFTFSDYAMSWIRQAPGKGLEWVSTISDGGTYTYYPDSVKGRFTISRDNAKNSLYLQMNSLRAEDTAVYYCAREWGDYDGFDYWGQGTLVTVSS VL: DIQMTQSPSSLSASVGDRVTITCRASQEISGYLSWYQQKPGKAPKRLIYAASTLDSGVPSRFSGSGSGTEFTLTISSLQPEDFATYYCLQYDSYPYTFGQGTKLEIKR
